Assay results: patent US20170313750A1 (Novo Nordisk, published 2017)
Positions count from the first letter of the chain named. Numbered stars: 1 amine (or outer) side, 2 acyl side, 3 side chain; on linkers, the order of the positions; unused ones are H or OH. Side chains are listed from the residue outwards. * marks the point of attachment. Hexadecanoyl(16-SO3H) = O=C(CCCCCCCCCCCCCCCS(=O)(=O)O)*; C18 diacid = O=C(O)CCCCCCCCCCCCCCCCC(=O)*; γGlu = O=C(O)[C@H](CCC(=O)[*:2])N[*:1]; Isovaleryl = CC(C)CC(=O)*; AEEA = NCCOCCOCC(=O)O

B1: N{alpha-4}-(3-Methylbutanoyl)-N{Epsilon-7}-[(4S)-4-carboxy-4-(17-carboxy-heptadecanoylamino)butanoyl]-[Arg4,Lys7,Thr9,Gln18,Val22,Tyr28,Trp30,Leu31]hPYY(4-36) (peptide)
peptide: RPEKPTEDASPEELQRYYVSLRHYYNWLTRQRY
HELM: PEPTIDE1{[CC(C)CC(=O)[*:2]].R.P.E.K.P.T.E.D.A.S.P.E.E.L.Q.R.Y.Y.V.S.L.R.H.Y.Y.N.W.L.T.R.Q.R.Y.[am]}|PEPTIDE2{[O=C(O)CCCCCCCCCCCCCCCCC(=O)[*:2]].[gGlu]}$PEPTIDE1,PEPTIDE2,5:R3-2:R2$$$V2.0
SMILES: CC(C)CC(=O)N[C@@H](CCCNC(=N)N)C(=O)N1CCC[C@H]1C(=O)N[C@@H](CCC(=O)O)C(=O)N[C@@H](CCCCNC(=O)CC[C@H](NC(=O)CCCCCCCCCCCCCCCCC(=O)O)C(=O)O)C(=O)N1CCC[C@H]1C(=O)N[C@H](C(=O)N[C@@H](CCC(=O)O)C(=O)N[C@@H](CC(=O)O)C(=O)N[C@@H](C)C(=O)N[C@@H](CO)C(=O)N1CCC[C@H]1C(=O)N[C@@H](CCC(=O)O)C(=O)N[C@@H](CCC(=O)O)C(=O)N[C@@H](CC(C)C)C(=O)N[C@@H](CCC(N)=O)C(=O)N[C@@H](CCCNC(=N)N)C(=O)N[C@@H](Cc1ccc(O)cc1)C(=O)N[C@@H](Cc1ccc(O)cc1)C(=O)N[C@H](C(=O)N[C@@H](CO)C(=O)N[C@@H](CC(C)C)C(=O)N[C@@H](CCCNC(=N)N)C(=O)N[C@@H](Cc1c[nH]cn1)C(=O)N[C@@H](Cc1ccc(O)cc1)C(=O)N[C@@H](Cc1ccc(O)cc1)C(=O)N[C@@H](CC(N)=O)C(=O)N[C@@H](Cc1c[nH]c2ccccc12)C(=O)N[C@@H](CC(C)C)C(=O)N[C@H](C(=O)N[C@@H](CCCNC(=N)N)C(=O)N[C@@H](CCC(N)=O)C(=O)N[C@@H](CCCNC(=N)N)C(=O)N[C@@H](Cc1ccc(O)cc1)C(N)=O)[C@@H](C)O)C(C)C)[C@@H](C)O
notes: also called Compound 44; 44
B2: N{alpha-4}-(3-Methylbutanoyl)-N{Epsilon-10}-[2-[2-[2-[[2-[2-[2-[[(4S)-4-carboxy-4-(17-carboxyheptadecanoylamino)butanoyl]amino]ethoxy]ethoxy]acetyl]amino]-ethox … (peptide)
peptide: Isovaleryl-RPEAPGK([AEEA-AEEA-γGlu-C18 diacid])DASPEELQRYYAELRHYYNWLTRQRY-NH2
notes: also called Compound 52; 52
B3: N{alpha-4}-(3-Methylbutanoyl)-N{Epsilon-10}-[(4S)-4-carboxy-4-[[2-[2-[2-[[(4S)-4-carboxy-4-(17-carboxyheptadecanoylamino)butanoyl]amino]ethoxy]ethoxy]-acetyl]am … (peptide)
peptide: Isovaleryl-RPEAPGK([γGlu-AEEA-γGlu-C18 diacid])DASPEELQRYYAELRHYYNWLTRQRY-NH2
SMILES: CC(C)CC(=O)N[C@@H](CCCNC(=N)N)C(=O)N1CCC[C@H]1C(=O)N[C@@H](CCC(=O)O)C(=O)N[C@@H](C)C(=O)N1CCC[C@H]1C(=O)NCC(=O)N[C@@H](CCCCNC(=O)CC[C@H](NC(=O)COCCOCCNC(=O)CC[C@H](NC(=O)CCCCCCCCCCCCCCCCC(=O)O)C(=O)O)C(=O)O)C(=O)N[C@@H](CC(=O)O)C(=O)N[C@@H](C)C(=O)N[C@@H](CO)C(=O)N1CCC[C@H]1C(=O)N[C@@H](CCC(=O)O)C(=O)N[C@@H](CCC(=O)O)C(=O)N[C@@H](CC(C)C)C(=O)N[C@@H](CCC(N)=O)C(=O)N[C@@H](CCCNC(=N)N)C(=O)N[C@@H](Cc1ccc(O)cc1)C(=O)N[C@@H](Cc1ccc(O)cc1)C(=O)N[C@@H](C)C(=O)N[C@@H](CCC(=O)O)C(=O)N[C@@H](CC(C)C)C(=O)N[C@@H](CCCNC(=N)N)C(=O)N[C@@H](Cc1c[nH]cn1)C(=O)N[C@@H](Cc1ccc(O)cc1)C(=O)N[C@@H](Cc1ccc(O)cc1)C(=O)N[C@@H](CC(N)=O)C(=O)N[C@@H](Cc1c[nH]c2ccccc12)C(=O)N[C@@H](CC(C)C)C(=O)N[C@H](C(=O)N[C@@H](CCCNC(=N)N)C(=O)N[C@@H](CCC(N)=O)C(=O)N[C@@H](CCCNC(=N)N)C(=O)N[C@@H](Cc1ccc(O)cc1)C(N)=O)[C@@H](C)O
notes: also called Compound 53; 53
B4: N{alpha-4}-(3-Methylbutanoyl)-N{Epsilon-10}-[(4S)-4-carboxy-4-[[2-[2-[2-[[(4S)-4-carboxy-4-(17-carboxyheptadecanoylamino)butanoyl]amino]ethoxy]ethoxy]-acetyl]am … (peptide)
peptide: Isovaleryl-RPEAPGK([γGlu-AEEA-γGlu-C18 diacid])DASPEELQRYYESLRHYYNWLTRQRY-NH2
SMILES: CC(C)CC(=O)N[C@@H](CCCNC(=N)N)C(=O)N1CCC[C@H]1C(=O)N[C@@H](CCC(=O)O)C(=O)N[C@@H](C)C(=O)N1CCC[C@H]1C(=O)NCC(=O)N[C@@H](CCCCNC(=O)CC[C@H](NC(=O)COCCOCCNC(=O)CC[C@H](NC(=O)CCCCCCCCCCCCCCCCC(=O)O)C(=O)O)C(=O)O)C(=O)N[C@@H](CC(=O)O)C(=O)N[C@@H](C)C(=O)N[C@@H](CO)C(=O)N1CCC[C@H]1C(=O)N[C@@H](CCC(=O)O)C(=O)N[C@@H](CCC(=O)O)C(=O)N[C@@H](CC(C)C)C(=O)N[C@@H](CCC(N)=O)C(=O)N[C@@H](CCCNC(=N)N)C(=O)N[C@@H](Cc1ccc(O)cc1)C(=O)N[C@@H](Cc1ccc(O)cc1)C(=O)N[C@@H](CCC(=O)O)C(=O)N[C@@H](CO)C(=O)N[C@@H](CC(C)C)C(=O)N[C@@H](CCCNC(=N)N)C(=O)N[C@@H](Cc1c[nH]cn1)C(=O)N[C@@H](Cc1ccc(O)cc1)C(=O)N[C@@H](Cc1ccc(O)cc1)C(=O)N[C@@H](CC(N)=O)C(=O)N[C@@H](Cc1c[nH]c2ccccc12)C(=O)N[C@@H](CC(C)C)C(=O)N[C@H](C(=O)N[C@@H](CCCNC(=N)N)C(=O)N[C@@H](CCC(N)=O)C(=O)N[C@@H](CCCNC(=N)N)C(=O)N[C@@H](Cc1ccc(O)cc1)C(N)=O)[C@@H](C)O
notes: also called Compound 50; 50
B5: N{alpha-4}-(3-Methylbutanoyl)-N{Epsilon-10}-[(4S)-4-carboxy-4-[[2-[2-[2-[[(4S)-4-carboxy-4-(16-sulfohexadecanoylamino)butanoyl]amino]ethoxy]-ethoxy]acetyl]amino … (peptide)
peptide: Isovaleryl-RPEAPPK([γGlu-AEEA-γGlu-Hexadecanoyl(16-SO3H)])DASPEELQRYYASLRHYYNWLTRQRY-NH2
SMILES: CC(C)CC(=O)N[C@@H](CCCNC(=N)N)C(=O)N1CCC[C@H]1C(=O)N[C@@H](CCC(=O)O)C(=O)N[C@@H](C)C(=O)N1CCC[C@H]1C(=O)N1CCC[C@H]1C(=O)N[C@@H](CCCCNC(=O)CC[C@H](NC(=O)COCCOCCNC(=O)CC[C@H](NC(=O)CCCCCCCCCCCCCCCS(=O)(=O)O)C(=O)O)C(=O)O)C(=O)N[C@@H](CC(=O)O)C(=O)N[C@@H](C)C(=O)N[C@@H](CO)C(=O)N1CCC[C@H]1C(=O)N[C@@H](CCC(=O)O)C(=O)N[C@@H](CCC(=O)O)C(=O)N[C@@H](CC(C)C)C(=O)N[C@@H](CCC(N)=O)C(=O)N[C@@H](CCCNC(=N)N)C(=O)N[C@@H](Cc1ccc(O)cc1)C(=O)N[C@@H](Cc1ccc(O)cc1)C(=O)N[C@@H](C)C(=O)N[C@@H](CO)C(=O)N[C@@H](CC(C)C)C(=O)N[C@@H](CCCNC(=N)N)C(=O)N[C@@H](Cc1c[nH]cn1)C(=O)N[C@@H](Cc1ccc(O)cc1)C(=O)N[C@@H](Cc1ccc(O)cc1)C(=O)N[C@@H](CC(N)=O)C(=O)N[C@@H](Cc1c[nH]c2ccccc12)C(=O)N[C@@H](CC(C)C)C(=O)N[C@H](C(=O)N[C@@H](CCCNC(=N)N)C(=O)N[C@@H](CCC(N)=O)C(=O)N[C@@H](CCCNC(=N)N)C(=O)N[C@@H](Cc1ccc(O)cc1)C(N)=O)[C@@H](C)O
notes: also called Compound 69; 69
B6: N{alpha-4}-(3-Methylbutanoyl)-N{Epsilon-7}-[(4S)-4-carboxy-4-(17-carboxy-heptadecanoylamino)butanoyl]-[Arg4,Lys7,Thr9,Gln18,Gln22,Tyr28,Trp30,Leu31]hPYY(4-36) (peptide)
peptide: Isovaleryl-RPEK([γGlu-C18 diacid])PTEDASPEELQRYYQSLRHYYNWLTRQRY-NH2
notes: also called Compound 43
B7: N{alpha-4}-(3-Methylbutanoyl)-N{Epsilon-10}-[(4S)-4-carboxy-4-[[2-[2-[2-[[(4S)-4-carboxy-4-(17-carboxyheptadecanoylamino)butanoyl]amino]ethoxy]ethoxy]-acetyl]am … (peptide)
peptide: Isovaleryl-RPEAPGK([γGlu-AEEA-γGlu-C18 diacid])DASPEELQRYYASLRHYYNWLTRQRY-NH2
notes: also called Compound 59; 59
B8: N{alpha-4}-(3-Methylbutanoyl)-N{Epsilon-7}-[2-[2-[2-[[(4S)-4-carboxy-4-(13-carboxytridecanoylamino)butanoyl]amino]ethoxy]ethoxy]acetyl]-[Arg4,Lys7,Pro9,Gln18,Ty … (peptide)
peptide: B1 peptide with T6P, V19A
modifications: N-terminal alpha-amino (position 4): 3-methylbutanoyl; Lys7 (hPYY(1-36) numbering) epsilon-amino: [2-[2-[2-[[(4S)-4-carboxy-4-(13-carboxytridecanoylamino)butanoyl]amino]ethoxy]ethoxy]acetyl]; C-terminal amide
notes: also called Compound 71; 71
B9: N{alpha-4}-(3-Methylbutanoyl)-N{Epsilon-7}-[(4S)-4-carboxy-4-[[(4S)-4-carboxy-4-(19-carboxynonadecanoylamino)butanoyl]amino]butanoyl]-[Arg4,Lys7,Pro9,Gln18, … (peptide)
peptide: B1 peptide with T6P, V19A
modifications: N-terminal alpha-amino (position 4): 3-methylbutanoyl; Lys7 (hPYY(1-36) numbering) epsilon-amino: [(4S)-4-carboxy-4-[[(4S)-4-carboxy-4-(19-carboxynonadecanoylamino)butanoyl]amino]butanoyl]; C-terminal amide
notes: also called Compound 12; 12

Biological target: T1, human Y5 receptor (Q15761, NPY5R_HUMAN, Uniprot) (human, UniProt Q15761 1-445)
T1 construct: whole, on cells; Assayed as membrane preparations of the expressing cells
T1 sequence (looked up): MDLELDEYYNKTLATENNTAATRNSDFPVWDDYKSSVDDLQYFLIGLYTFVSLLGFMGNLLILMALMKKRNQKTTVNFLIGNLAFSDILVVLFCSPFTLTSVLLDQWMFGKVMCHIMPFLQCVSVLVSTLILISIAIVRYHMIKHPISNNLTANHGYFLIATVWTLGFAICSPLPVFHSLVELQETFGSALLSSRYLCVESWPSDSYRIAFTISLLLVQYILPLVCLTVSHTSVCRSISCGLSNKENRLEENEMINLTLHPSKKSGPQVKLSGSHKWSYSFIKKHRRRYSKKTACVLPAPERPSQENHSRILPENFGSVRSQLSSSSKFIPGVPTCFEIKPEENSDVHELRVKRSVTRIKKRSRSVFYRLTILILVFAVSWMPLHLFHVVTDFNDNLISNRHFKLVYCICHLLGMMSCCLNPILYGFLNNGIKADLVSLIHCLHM
Test: ratio of SPA values, Y2 as reference
Method: (§1) Human Y receptor SPA binding assay were performed in white 96-well plates in a total volume of 200 μl per well.
(§2) Plates were sealed and incubated at +25° C. for 2 hours in a plate shaker set at 400 rpm and thereafter centrifuged at 1500 rpm for 10 minutes prior to reading of luminescence on a microplate scintillation and luminescence counter.

Row | Binder | Ratio of Y5/Y2 EC50 values
1 | B1 | 1420
2 | B2 | 275
3 | B3 | 393

Biological target: T2, human Y4 receptor (P50391, NPY4R_HUMAN, Uniprot) (human, UniProt P50391 1-375)
T2 construct: whole, on cells; Assayed as membrane preparations of the expressing cells
Test: ratio of SPA values, Y2 as reference
Method: as §1, §2

T2 sequence (P50391 whole entry, one chain of several): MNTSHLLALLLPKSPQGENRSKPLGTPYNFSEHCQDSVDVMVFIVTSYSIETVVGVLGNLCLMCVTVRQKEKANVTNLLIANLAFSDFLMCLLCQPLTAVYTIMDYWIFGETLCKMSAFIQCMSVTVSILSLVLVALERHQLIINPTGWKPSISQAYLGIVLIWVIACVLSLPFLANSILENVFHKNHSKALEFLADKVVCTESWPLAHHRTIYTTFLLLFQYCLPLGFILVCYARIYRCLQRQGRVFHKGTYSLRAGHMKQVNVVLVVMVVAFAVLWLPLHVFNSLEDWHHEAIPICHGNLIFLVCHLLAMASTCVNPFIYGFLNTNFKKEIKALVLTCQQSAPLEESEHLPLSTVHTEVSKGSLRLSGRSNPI

Row | Binder | Ratio of Y4/Y2 EC50 values
4 | B1 | 20200
5 | B2 | 8620
6 | B3 | 8080

Biological target: T1, human Y5 receptor (Q15761, NPY5R_HUMAN, …)
Test: SPA vs [125I]-PYY(1-36)
Method: as §1, §2

Row | Binder | Ki [nM]
7 | B1 | 470
8 | B4 | 122
9 | B2 | 182
10 | B3 | 452
11 | B5 | 146
12 | B6 | 509
13 | B7 | 279

Biological target: T3, human Y2 receptor (P49146, NPY2R_HUMAN, Uniprot) (human, UniProt P49146 1-381)
T3 construct: whole, on cells; also called human NPY Y2 receptor
T3 sequence (looked up): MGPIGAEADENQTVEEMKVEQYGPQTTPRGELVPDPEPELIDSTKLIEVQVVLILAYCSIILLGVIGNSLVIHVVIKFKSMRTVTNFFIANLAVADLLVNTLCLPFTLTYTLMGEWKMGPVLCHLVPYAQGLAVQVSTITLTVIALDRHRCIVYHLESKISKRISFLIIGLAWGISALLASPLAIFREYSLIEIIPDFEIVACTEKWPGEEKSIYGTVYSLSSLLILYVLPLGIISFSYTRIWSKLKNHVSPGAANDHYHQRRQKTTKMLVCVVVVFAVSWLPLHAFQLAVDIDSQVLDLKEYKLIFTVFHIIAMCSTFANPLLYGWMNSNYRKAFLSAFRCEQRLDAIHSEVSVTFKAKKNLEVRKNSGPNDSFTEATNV
Test: SPA vs [125I]-PYY(1-36)
Method: as §1, §2

Row | Binder | Ki [nM]
14 | B8 | 0.51
15 | B1 | 0.33
16 | B9 | 1.1
17 | B4 | 3.3
18 | B2 | 0.66
19 | B3 | 1.15
20 | B5 | 0.94

Biological target: T3, human Y2 receptor (P49146, NPY2R_HUMAN, …)
Test: cell-based or functional assay

Row | Binder | Y2 EC50, Actone functional potency assay [nM]
21 | B8 | 0.5
22 | B1 | 1.35
23 | B9 | 4.35
24 | B3 | 0.77
25 | B6 | 0.77

Biological target: T2, human Y4 receptor (P50391, NPY4R_HUMAN, …)
Test: SPA vs [125I]-PP
Method: as §1, §2

Row | Binder | Ki [nM]
26 | B1 | 6670
27 | B2 | 5690
28 | B3 | 9290
29 | B5 | 5690
30 | B6 | 6400
